# Test results: patent US20220187308A1 (published 2022)
# Residue numbers refer to the chain shown, from its start.
# T1: biotinylated human HMGB1-Avi (human, UniProt P09429 2-215, biotin added at the C-terminal Avitag sequence by biotin ligase (BirA))
# T1 construct: also called biotin-labeled hHMGB1; hHMGB1-Avitag
# T1 sequence: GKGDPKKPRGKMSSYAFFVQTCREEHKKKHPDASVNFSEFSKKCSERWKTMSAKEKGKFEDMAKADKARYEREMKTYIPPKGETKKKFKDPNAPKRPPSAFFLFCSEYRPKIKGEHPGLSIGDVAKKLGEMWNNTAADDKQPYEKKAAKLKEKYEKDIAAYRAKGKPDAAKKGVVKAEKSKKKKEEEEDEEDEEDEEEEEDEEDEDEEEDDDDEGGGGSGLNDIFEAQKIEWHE
# T2: soluble human IL-6 receptor (human, UniProt P08887 20-357)
# T2 construct: range 1-357; The stated range begins at position 1, so it includes the signal peptide; no cleavage site is stated; also called hsIL-6R
# T2 sequence (looked up): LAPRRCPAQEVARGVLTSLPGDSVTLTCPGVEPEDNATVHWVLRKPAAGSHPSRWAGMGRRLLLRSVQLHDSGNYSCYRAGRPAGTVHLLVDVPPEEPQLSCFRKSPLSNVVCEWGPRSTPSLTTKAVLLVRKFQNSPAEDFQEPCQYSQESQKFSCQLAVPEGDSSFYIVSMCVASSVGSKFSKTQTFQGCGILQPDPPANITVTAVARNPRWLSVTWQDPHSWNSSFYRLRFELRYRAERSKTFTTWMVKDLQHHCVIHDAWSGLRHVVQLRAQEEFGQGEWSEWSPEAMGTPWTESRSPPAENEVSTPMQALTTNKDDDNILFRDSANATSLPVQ
# T3: human HMGB1 (human, UniProt P09429 2-215)
# T3 construct: Expressed in FreeStyle 293 cells and purified; analyte in the Biacore assay of step (26-5); also called hHMGB1; recombinant human HMGB1
# T3 sequence: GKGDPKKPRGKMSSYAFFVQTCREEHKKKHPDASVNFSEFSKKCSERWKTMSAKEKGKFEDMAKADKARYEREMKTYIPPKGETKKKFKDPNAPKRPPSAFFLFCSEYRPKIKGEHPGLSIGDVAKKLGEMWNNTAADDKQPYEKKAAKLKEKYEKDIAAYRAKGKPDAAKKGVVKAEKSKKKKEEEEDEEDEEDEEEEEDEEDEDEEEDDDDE
# B1: mIAP1B3-3_#024 (antibody, human IgG1, kappa, V domains shown)
# VH: QVQLQESGPGLVKPSQTLSLTCAVSGGSISKTYSYWAWIRQHPVKGLEWIGYISYGGGTHYNPSLKSRVTISSDTSKNHFSLNLNSVTAADTAVYYCARSGFRVFGAFDIWGQGTMVTVSS
# VL: DIQMTQSPSSLSASVGDRVTITCRASQSIRSHLNWYQQKPGKAPKLLIYDASHLQSGVPSRFSGSGSGTDFTLTISSLQPEDFATYYCQQHYNSPLTFGQGTKVEIKR
# notes: From His library 1; tested from the culture supernatant of 293-F cells
# B2: mIAP1B3-3_#130 (antibody, human IgG1, kappa, V domains shown)
# VH: QVQLQESGPGLVKPSETLSLTCTVSGGSISSSSYYWGWIRQPPGKGLEWIGSIYYSGSTYYNPSLKSRVTISVDTSKNQFSLKLSSVTAADTAVYYCARHGPSGSYYAFDIWGQGTMVTVSS
# VL: B1 VL with R30S, D50K, H91R, Y92H, N93H
# notes: as for B1
# B3: mIAP1B3-3_#230 (antibody, human IgG1, kappa, V domains shown)
# VH: QVQLQQSGPGLVKPSESLSLTCNVSGYYISSGYYWGWIRQPPGKGLEWIGSIYPSGTSHYNPSLKSRVTISLDTSKNQFSLKLSSLSAADTAVYYCARAGVIAGGPRTYAFDIWGQGTTVTVSS
# VL: B1 VL with N34A, D50K, H91S, Y92H, N93H
# notes: as for B1
# B4: HM_4_1_R_001 (antibody, human IgG1, kappa, V domains shown)
# VH: EVQLVESGGGLVQPGGSLRLSCAASGFTFSNYEMNWVRQAPGKGLEWISYISSSGRTFSYADSVKGRFTISRDNAKNSLYLQMNSLRAEDTAVYYCARDSGYSDGWYPSWFDSWGQGTLVTVSS
# VL: B1 VL with R30N, N34A, D50H, H53N, Y92S, N93S, S94Y, L96Y
# notes: From His library 1; also called HM_4_1_R_001 antibody; HM_4_1R_001 antibody
# B5: HM_3_2_R_017 (antibody, human IgG1, kappa, V domains shown)
# VH: QVQLQESGPGLVKPSETLSLTCSVSGGPISSSGYYWGWIRQPPGKGLEWIGTVYFNGDTYYNPSLKSRVTISVDTSKNQFSLKLNSVTAADTAVYYCAREEGYYYYYMDVWGKGTTVTVSS
# VL: B1 VL with R30N, D50G, H91S, Y92H, N93S, S94Y
# notes: From His library 1; also called HM_3_2_R_017 antibody
# B6: HM_3_2_R_054 (antibody, human IgG1, kappa, V domains shown)
# VH: QVQLVQSGAEVKKPGSSVKVSCKASGGTFSSYAISWVRQAPGQGLEWMGGIIPIFGTANYAQKFQGRVTITADESTSTAYMELSSLRSEDTAVYYCARDNRTLTYYDFWSGYSFWDAFDIWGQGTMVTVSS
# VL: B1 VL with R30H, N34A, D50G, H91R, Y92H, N93S, S94Y
# notes: From His library 1; also called HM_3_2_R_054 antibody
# B7: FH4-IgG1 (antibody, V domains shown)
# VH: QVQLVQSGAEVKKPGSSVKVSCKASGGTFSSYAISWVRQAPGQGLEWMGGIIPIFGTANYAQKFQGRVTITADESTSTAYMELSSLRSEDTAVYYCARERDYYDSSGYYDAFDIWGQGTMVTVSS
# VL: ETTVTQSPSFLSASVGDRVTITCITTTDIDDDMNWFQQEPGKAPKLLISEGNILRPGVPSRFSSSGYGTDFTLTISKLQPEDFATYYCLQSDNLPFTFGQGTKLEIKR
# notes: also called FH4-IgG1 antibody
# B8: H54/L28-IgG1 (antibody, V domains shown)
# VH: QVQLQESGPGLVKPSETLSLTCAVSGYSISDDQAWSWVRQPPGEGLEWIGYISYSGITNYNPSLKGRVTISRDTSKNQFSLKLSSVTAADTAAYYCARSLARTTAMDYWGEGTLVTVSS
# VL: DIQMTQSPSSLSASVGDSVTITCQASQDISSYLNWYQQKPGKAPELLIYYGSELHSGVPSRFSGSGSGTDFTFTISSLEAEDAATYYCQQGNSLPYTFGQGTKVEIER
# notes: Control anti-human IL-6 receptor antibody described in WO2009125825; also called H54/L28-IgG1 antibody
# B9: 6RL #9-IgG1 (antibody, V domains shown)
# VH: QVQLVQSGAEVKKPGASVKVSCKASGYTFTSYYMHWVRQAPGQGLEWMGIINPSGGSTSYAQKFQGRVTMTRDTSTSTVYMELSSLRSEDTAVYYCARDDPGGGEYYFDYWGQGTLVTVSS
# VL: QSVLTQPPSVSGAPGQRVTISCTGSRSNMGAGYDVHWYQLLPGAAPKLLISHNTHRPSGVPDRFSGSKSGASASLAITGLQAEDEADYYCQSHDSSLSAVVFGGGTKLTVLS
# notes: also called 6RL #9 antibody; 6RL #9-IgG1 antibody
# Target: T4, GC-mIgA (mouse)
# T4 construct: also called recombinant mouse IgA GC-mIgA; mouse IgA
# T4 sequence (light, as listed by the source): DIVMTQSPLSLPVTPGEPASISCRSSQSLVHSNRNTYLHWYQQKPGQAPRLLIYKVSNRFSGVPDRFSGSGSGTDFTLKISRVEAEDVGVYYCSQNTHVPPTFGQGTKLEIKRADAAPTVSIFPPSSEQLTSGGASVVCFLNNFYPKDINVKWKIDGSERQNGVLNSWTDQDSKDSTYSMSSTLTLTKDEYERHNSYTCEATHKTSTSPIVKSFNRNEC
# Assay: SPR (Biacore A100), antibody from culture supernatant captured via protein A/G on CM5, GC-mIgA as analyte, 25 C, 1.2 mM CaCl2, pH 7.4 against pH 5.8
# Experimental: The culture supernatant obtained by the above method was used to analyze GC-mIgA-binding ability using Biacore A100. Antibodies in the culture supernatant were captured onto Sensor chip CM5 (GE Healthcare Bio-Sciences Corp.) with protein A/G (Pierce Biotechnology Inc.) immobilized thereon in an appropriate amount by the amine coupling method. Two types of buffer solutions were used as running buffers: 20 mM ACES, 150 mM NaCl, 0.05% (w/v) Tween 20, and 1.2 mM CaCl₂) (pH 7.4); and 20 mM ACES, 150 mM NaCl, 0.05% (w/v) Tween 20, and 1.2 mM CaCl₂) (pH 5.8). The interaction of antigen-antibody reaction was analyzed under neutral pH and acidic pH conditions. GC-mIgA was also diluted with each of these buffers and injected at a flow rate of 10 μL/min for 60 seconds to interact the antigen with the antibodies captured on the sensor chip. Then, 10 mM glycine-HCl (pH 1.5) was injected thereto at a flow rate of 30 μL/min for 30 seconds to regenerate the sensor chip. Assay was all carried out at 25° C.
row,Binder,binding result
1,B1,binds
2,B2,binds
3,B3,binds

# Target: T1, biotinylated human HMGB1-Avi
# Assay: phage ELISA (Fab displayed on phage) on biotin-labeled hHMGB1 on a StreptaWell plate, pH 7.6 against pH 5.5
# Experimental: A phage-containing culture supernatant was collected by phage culture according to a conventional method (Methods Mol. Biol. (2002) 178, 133-145) from each single colony of the E. coli obtained after the third and fourth rounds of panning carried out in the step (26-2). After addition of BSA and CaCl₂) (final concentration: 4% BSA and 1.2 mM calcium ion), the phage-containing culture supernatant was subjected to ELISA by the following procedures: StreptaWell 96 microtiter plate (F. Hoffmann-La Roche Ltd.) was coated for 4 hours or longer with 100 μL of PBS containing biotin-labeled hHMGB1. Each well of the plate was washed with PBST to remove unbound antigens. Then, the well was blocked with 250 μL of 4% BSA-TBS (50 mM Tris, 300 mM NaCl, 2.5 mM CaCl₂), and 4% BSA) for 1 hour or longer. […] Each well was washed with 1.2 mM CaCl₂)/TBST (pH 7.6), and 1.2 mM CaCl₂)/TBS (pH 7.6) or 1.2 mM CaCl₂)/150 mM NaCl/50 mM MES (pH 5.5) was added thereto. The plate was left standing at 37° C. for 30 minutes for incubation. After washing with 1.2 mM CaCl₂)/TBST (pH 7.6), HRP-conjugated anti-M13 antibodies (Amersham Pharmacia Biotech Inc.) diluted with 4% BSA-TBS were added to each well. The plate was incubated for 1 hour. After washing with 1.2 mM CaCl₂)/TBST (pH 7.6), TMB single solution (Invitrogen Corp.) was added to the well. The chromogenic reaction of the solution in each well was terminated by the addition of sulfuric acid. Then, the developed color was assayed on the basis of absorbance at 450 nm.
row,Binder,binding result
1,B4,binds
2,B5,binds
3,B6,binds

# Target: T2, soluble human IL-6 receptor
# Assay: SPR (Biacore T100); ratio of the KD values at 3 µM and 2 mM CaCl2
# Experimental: The antigen-antibody reaction was kinetically analyzed in solutions of 2 mM and 3 μM calcium ion concentrations as high-calcium ion concentration and low-calcium ion concentration conditions, respectively. Each antibody of interest was captured onto Sensor chip CM4 (GE Healthcare Bio-Sciences Corp.) with protein A (Invitrogen Corp.) immobilized thereon in an appropriate amount by the amine coupling method. Two types of buffer solutions were used as running buffers: 10 mM ACES, 150 mM NaCl, 0.05% (w/v) Tween 20, and 2 mM CaCl₂ (pH 7.4); and 10 mM ACES, 150 mM NaCl, 0.05% (w/v) Tween 20, and 3 […] CaCl₂ (pH 7.4). The human IL-6 receptors were also diluted with each of these buffers. Assay was all carried out at 37° C.
row,Binder,Ca dependence (KD at 3 µM CaCl2 against KD at 2 mM CaCl2) [times]
1,B7,≥ 60
2,B8,~1
3,B9,≥ 120

# Target: T3, human HMGB1
# Assay: SPR (Biacore T100), antibody captured via protein A/G on CM4, hHMGB1 as analyte, 25 C, 1.2 mM CaCl2, pH 7.4 against pH 5.8
# Experimental: In order to judge the pH dependence of hHMGB1-binding activity of the antibodies HM_3_2_R_017 (heavy chain: SEQ ID NO: 131 and light chain: SEQ ID NO: 132), HM_3_2_R_054 (heavy chain: SEQ ID NO: 133 and light chain: SEQ ID NO: 134), and HM_4_1_R_001 (heavy chain: SEQ ID NO: 135 and light chain: SEQ ID NO: 136) obtained in the step (26-4), these antibodies were analyzed for their interaction with hHMGB1 using Biacore T100 (GE Healthcare Bio-Sciences Corp.). The interaction of antigen-antibody reaction was analyzed in solutions of pH 7.4 and pH 5.8 as neutral pH and acidic pH conditions, respectively. Approximately of 200 RU of each antibody of interest was captured onto Sensor chip CM4 (GE Healthcare Bio-Sciences Corp.) with protein A/G (Pierce Biotechnology Inc.) immobilized thereon in an appropriate amount by the amine coupling method. Two types of buffer solutions were used as running buffers: 20 mM ACES, 150 mM NaCl, 0.05% (w/v) Tween 20, and 1.2 mM CaCl₂) (pH 7.4); and 20 mM ACES, 150 mM NaCl, 0.05% (w/v) Tween 20, and 1.2 mM CaCl₂) (pH 5.8). hHMGB1 was also diluted with each of these buffers. Assay was all carried out at 25° C.
# In the analysis on the interaction of antigen-antibody reaction using the HM_3_2_R_017 antibody, the HM_3_2_R_054 antibody, and the HM_4_1_R_001 antibody, the diluted hHMGB1 solution or a blank running buffer was injected at a flow rate of 10 μL/min for 60 seconds to […] onto the sensor chip. The HM_3_2_R_017 antibody, the HM_3_2_R_054 antibody, and the HM_4_1_R_001 antibody were interacted with hHMGB1. Then, 10 mM glycine-HCl (pH 1.5) was injected thereto at a flow rate of 30 μL/min for 30 seconds to regenerate the sensor chip.
row,Binder,binding result
1,B4,binds
2,B5,binds
3,B6,binds
